Paper PMC13090976 (Cell Stress & Chaperones, 2026)
Blank lines part the entries; values can stand above or below the molecule they belong to. Square brackets hold non-standard residues; d marks the D form. Ends that are not written are not given here. Peptide text beside a SMILES is read from it. * marks the point of attachment. FITC = O=C1OC2(c3ccc(O)cc3Oc3cc(O)ccc32)c2ccc(NC(=S)*)cc21; Biotin = O=C1N[C@H]2[C@H](CS[C@H]2CCCCC(=O)*)N1; pT = C[C@@H](OP(=O)(O)O)[C@H](N)C(=O)O; Ahx = NCCCCCC(=O)O

B4: FITC-Ahx-GSGPTIEEVD (peptide)
peptide: {FITC-Ahx}-GSGPTIEEVD
notes: C-terminal tail of human HSP70 (HSPA1A); also called EEVD (fluorescence polarization tracer); unphosphorylated EEVD peptide; source: synthetic peptide (Lifetein/Genscript)

Tests used:
[1] = biological target: CHIP (UniProt Q9UNE7); assay: fluorescence polarization titration; details: reference: unphosphorylated EEVD peptide; sites T636
[2] = biological target: T1, full-length CHIP-G132N (Homo sapiens, UniProt Q9UNE7, G132N); assay: Fluorescence polarization, full-length CHIP-G132N; details: Fig. 4d binding curve, value in picture; FITC-Ahx-labelled peptide 20 nM, room temperature, 30 min; n = 3 independent experiments
T1 construct: HIS; made in house
T1 sequence (Q9UNE7 1-303 G132N): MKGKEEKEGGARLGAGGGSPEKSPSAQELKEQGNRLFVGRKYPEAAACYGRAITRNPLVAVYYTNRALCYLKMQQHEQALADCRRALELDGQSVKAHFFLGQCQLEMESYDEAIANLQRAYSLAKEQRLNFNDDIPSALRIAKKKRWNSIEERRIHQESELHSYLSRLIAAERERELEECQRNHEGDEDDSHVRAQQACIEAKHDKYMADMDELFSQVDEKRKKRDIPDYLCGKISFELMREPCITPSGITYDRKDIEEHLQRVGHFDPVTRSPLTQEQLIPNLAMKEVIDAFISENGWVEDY
Text: (§1) Plasmids were propagated in DH5α Escherichia coli and purified using Qiagen Miniprep or Bio-Rad Midiprep kits. Mutations were introduced with Q5 (NEB) or QuikChange II XL (Agilent) kits and verified by Sanger sequencing. Peptides (Lifetein/Genscript) included unphosphorylated […] (EEVD), phosphorylated GP(pT)IEEVD (pEEVD), biotin-[…] (biotin-EEVD), biotin-GSGSGP(pT)IEEVD (biotin-pEEVD), and FITC-Ahx-[…] or FITC-Ahx-GSGP(pT)IEEVD for polarization assays. Recombinant CHIP-TPR (residues 21-154) and full-length CHIP proteins were expressed and purified as described.[8], [29]
(§2) The N-terminally labeled peptides were loaded into PCR reaction tubes at 2X (40 nM), resulting in a final concentration of 20 nM. Recombinant CHIP constructs were added to the tubes at the indicated concentrations. The reaction was left at room temperature for 30 min before loading into black, low-volume, round-bottom 384-well plates (Greiner Bio-One) with inter-run triplicates at 18 μl each and subsequently repeated independently 2 more times. […] The polarization readings were normalized to the dilution buffer. Gain adjustment was made to the tracer HSP70 peptides alone.

[3] = biological target: T2, full-length wild-type CHIP (Homo sapiens, UniProt Q9UNE7); assay: Fluorescence polarization, full-length wild-type CHIP with HSP70 C-terminal peptide; details: Fig. 4c binding curve, value in picture; FITC-Ahx-labelled peptide 20 nM, room temperature, 30 min; n = 3 independent experiments
T2 construct: Recombinant CHIP-TPR (residues 21-154) and full-length CHIP proteins were expressed and purified as described; HIS; made in house
T2 sequence (Q9UNE7 1-303): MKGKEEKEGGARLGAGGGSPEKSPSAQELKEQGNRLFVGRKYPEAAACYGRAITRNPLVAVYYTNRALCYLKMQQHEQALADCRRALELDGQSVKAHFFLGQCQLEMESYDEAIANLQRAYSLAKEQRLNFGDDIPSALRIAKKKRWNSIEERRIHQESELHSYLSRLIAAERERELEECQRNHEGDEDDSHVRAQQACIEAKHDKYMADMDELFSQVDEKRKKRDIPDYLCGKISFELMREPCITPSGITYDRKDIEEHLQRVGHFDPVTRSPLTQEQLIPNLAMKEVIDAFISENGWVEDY
Text: as §1, §2

[4] = system: proteasome; assay: Proteasome-dependent turnover of HSP70 T636 variants; type: cell-based; details: relative to WT and T636A, Figure S3
[5] = system: HSP70; assay: In vitro HSP70 ubiquitination; type: biochemical; details: Figure S2
[6] = system: HSP70; assay: NanoBiT, transient cellular HSP70-CHIP interaction; type: cell-based; details: Figure S1
[7] = system: HSP70; assay: Co-immunoprecipitation, steady-state HSP70-CHIP interaction; type: cell-based; details: phosphomimetic HSP70, Figure S1
[8] = biological target: T3, human CHIP-TPR (residues 21-154) (human, UniProt Q9UNE7 21-154); assay: BLI; BLItz, biotinylated peptide loaded on streptavidin sensors, TPR construct at 1 to 25 uM in solution; 20 mM HEPES, 150 mM NaCl, 5 mM beta-mercaptoethanol, pH 7.2; Kd = koff/kon from individual fits; details: both partners purified
T3 construct: also called wild-type CHIP-TPR
T3 sequence (looked up): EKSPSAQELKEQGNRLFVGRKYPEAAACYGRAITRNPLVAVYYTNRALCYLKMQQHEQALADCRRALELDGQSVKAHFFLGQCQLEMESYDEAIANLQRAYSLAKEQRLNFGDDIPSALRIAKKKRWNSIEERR

[9] = biological target: T4, G132N CHIP-TPR (human, UniProt Q9UNE7 21-154, G132N); assay: as above; details: both partners purified
T4 construct: CHIP (STUB1), human, TPR domain with G132N; also called G132N variant
T4 sequence (looked up): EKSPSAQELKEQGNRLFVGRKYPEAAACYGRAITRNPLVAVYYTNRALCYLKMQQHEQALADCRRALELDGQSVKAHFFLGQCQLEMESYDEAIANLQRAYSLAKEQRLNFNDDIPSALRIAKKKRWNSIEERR

[10] = biological target: T5, full-length CHIP (wild-type) (human, UniProt Q9UNE7 1-303); assay: fluorescence polarisation; FITC-labelled peptide at 20 nM, recombinant CHIP constructs added at varied concentrations, 30 min at room temperature; one-site total binding fit, normalised to % of maximum binding; details: both partners purified
T5 construct: CHIP (STUB1), full length, wild-type; Vector CHIP of the JCS lab; also called CHIP-WT; STUB1
T5 sequence (looked up): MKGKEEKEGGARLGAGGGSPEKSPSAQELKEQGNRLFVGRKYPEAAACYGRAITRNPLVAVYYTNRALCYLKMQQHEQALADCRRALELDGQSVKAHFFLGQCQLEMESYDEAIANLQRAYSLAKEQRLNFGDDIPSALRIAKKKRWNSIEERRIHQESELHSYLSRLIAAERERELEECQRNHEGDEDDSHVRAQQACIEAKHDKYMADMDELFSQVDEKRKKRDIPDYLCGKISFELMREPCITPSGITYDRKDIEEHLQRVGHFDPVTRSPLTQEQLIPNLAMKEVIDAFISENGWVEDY

[11] = biological target: T6, CHIP TPR (fluorescence polarization construct) (human); assay: FP
T6 chain: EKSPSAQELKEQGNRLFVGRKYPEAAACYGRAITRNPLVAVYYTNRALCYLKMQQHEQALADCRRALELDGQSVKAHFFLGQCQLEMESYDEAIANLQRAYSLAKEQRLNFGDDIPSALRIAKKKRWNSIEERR

[12] = biological target: B4; assay: fluorescence polarisation; FITC-labelled peptide at 20 nM, recombinant CHIP constructs added at varied concentrations, 30 min at room temperature; one-site total binding fit, normalised to % of maximum binding; details: both partners purified

Molecule: CC[C@H](C)[C@H](NC(=O)[C@@H](NC(=O)[C@@H]1CCCN1C(=O)CN)[C@@H](C)O)C(=O)N[C@@H](CCC(=O)O)C(=O)N[C@@H](CCC(=O)O)C(=O)N[C@H](C(=O)N[C@@H](CC(=O)O)C(=O)O)C(C)C [EEVD] (H-GPTIEEVD-OH)
Kd [2]: 9.2 nM | Kd [3]: 6.5 nM

Molecule: T636D phosphomimetic: HSP70 T636D phosphomimetic variant
turnover [4]: accelerated proteasome-dependent turnover

B1: G132N: structure-guided G132N substitution variant of CHIP (protein)
chain: MKGKEEKEGGARLGAGGGSPEKSPSAQELKEQGNRLFVGRKYPEAAACYGRAITRNPLVAVYYTNRALCYLKMQQHEQALADCRRALELDGQSVKAHFFLGQCQLEMESYDEAIANLQRAYSLAKEQRLNFNDDIPSALRIAKKKRWNSIEERRIHQESELHSYLSRLIAAERERELEECQRNHEGDEDDSHVRAQQACIEAKHDKYMADMDELFSQVDEKRKKRDIPDYLCGKISFELMREPCITPSGITYDRKDIEEHLQRVGHFDPVTRSPLTQEQLIPNLAMKEVIDAFISENGWVEDY
modifications: left off: HIS, end not stated, state not stated
notes: structure-guided G132N substitution variant of CHIP
HSP70 ubiquitination activity [5]: retained HSP70 ubiquitination activity | binding to the non-mimetic HSP70 [6]: overall reducing binding | rescue of interaction in co-immunoprecipitation [7]: no rescue

B2: biotin-GSGSGP(pT)IEEVD (peptide)
peptide: Biotin-GSGSGP[pT]IEEVD
notes: C-terminal tail of human HSP70 (HSPA1A), Thr636 phosphorylated; also called biotin-pEEVD; biotinylated pEEVD peptide; source: synthetic peptide (Lifetein/Genscript)
Kd [8]: 5230 nM | Kd [9]: 1250 nM

Molecule: B4
Kd [10]: 7 nM | Kd [11]: 42000 nM

B6: CHIP TPR-CC (domain or fragment)
chain: MKGKEEKEGGARLGAGGGSPEKSPSAQELKEQGNRLFVGRKYPEAAACYGRAITRNPLVAVYYTNRALCYLKMQQHEQALADCRRALELDGQSVKAHFFLGQCQLEMESYDEAIANLQRAYSLAKEQRLNFGDDIPSALRIAKKKRWNSIEERRIHQESELHSYLSRLIAAERERELEECQRNHEGDEDDSHVRAQQACIEAKHDKYMADMDELFSQVDEKRKKR
Kd [12]: 42 nM

Results, then the molecule that gave them:

fold change [1]: weaker
Molecule: HSP70 C-terminal tail (from UniProt P0DMV8) pT636 pEEVD peptide

Kd [2]: 96 nM | Kd [3]: 46 nM
Molecule: CC[C@H](C)[C@H](NC(=O)[C@@H](NC(=O)[C@@H]1CCCN1C(=O)CN)[C@@H](C)OP(=O)(O)O)C(=O)N[C@@H](CCC(=O)O)C(=O)N[C@@H](CCC(=O)O)C(=O)N[C@H](C(=O)N[C@@H](CC(=O)O)C(=O)O)C(C)C [pEEVD, GP(pT)IEEVD] (H-GP[pT]IEEVD-OH)

Kd [8]: 592 nM | Kd [9]: 597 nM
B3: biotin-GSGSGPTIEEVD (peptide)
peptide: Biotin-GSGSGPTIEEVD
notes: C-terminal tail of human HSP70 (HSPA1A); also called biotin-EEVD; biotinylated EEVD peptide; source: synthetic peptide (Lifetein/Genscript)

Kd [12]: 28 nM
B5: CHIP TPR (fluorescence polarization construct) (domain or fragment)
chain: EKSPSAQELKEQGNRLFVGRKYPEAAACYGRAITRNPLVAVYYTNRALCYLKMQQHEQALADCRRALELDGQSVKAHFFLGQCQLEMESYDEAIANLQRAYSLAKEQRLNFGDDIPSALRIAKKKRWNSIEERR
